This is an account of results in patent publication US20080089892A1.

In assay [1] the target is biotin-labeled soluble FcRn (Fc neonatal receptor). The experiment in a line: ELISA, biotin-FcRn captured on Neutravidin plate, single-point IgG, pH 6.0. In general terms: In an ELISA, binding on a coated surface is turned into a signal by an enzyme label.
Assay [2] shares this target. The experiment in a line: ELISA, biotin-FcRn captured on Neutravidin plate, single-point IgG, pH 7.0.
In assay [3] the target is Human FcγRIIIa(158F) soluble extracellular domain with engineered 6-histidine tag (human) (UniProt P08637). The experiment in a line: KinExA, 7.5 nM IgG equilibrated with titrated soluble FcγRIIIa(158F), free IgG captured on receptor beads. (In KinExA the mixture passes briefly over coated beads that capture the unbound partner.)
Assay [4] concerns the target human Fc gamma RI receptor (CD64), extracellular portion with C-terminal 6-his tag. Kind of assay: ELISA: plate-coated human FcγRI (CD64) extracellular portion with 6-his tag; IgG titrated; bound IgG detected with anti-human kappa alkaline phosphatase conjugate, A560.

UniProt P08637, sequence (P08637 other isoform, or with tags, fused parts or gaps): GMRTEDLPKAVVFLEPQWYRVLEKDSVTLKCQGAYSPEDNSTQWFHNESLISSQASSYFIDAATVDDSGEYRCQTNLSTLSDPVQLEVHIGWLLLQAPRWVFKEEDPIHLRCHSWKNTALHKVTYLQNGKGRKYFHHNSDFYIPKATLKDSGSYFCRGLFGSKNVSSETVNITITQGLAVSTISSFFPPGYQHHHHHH
human Fc gamma RI receptor (CD64), extracellular portion with C-terminal 6-his tag, sequence (chain, as listed by the source limits assumed): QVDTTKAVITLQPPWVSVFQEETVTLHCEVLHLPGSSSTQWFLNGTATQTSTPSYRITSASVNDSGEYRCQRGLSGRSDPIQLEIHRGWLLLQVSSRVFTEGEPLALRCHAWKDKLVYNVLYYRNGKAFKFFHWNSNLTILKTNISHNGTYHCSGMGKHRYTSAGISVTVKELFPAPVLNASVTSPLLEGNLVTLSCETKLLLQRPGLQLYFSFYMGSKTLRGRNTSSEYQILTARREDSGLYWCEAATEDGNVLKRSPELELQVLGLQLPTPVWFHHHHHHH

As to “anti-CD20 IgG Fc variant A330K (antibody)”, the FcRn 6.0 (binding relative to parental) (% of parental (parental = 100)) in assay [1] is 104. Moreover, in assay [2], the FcRn 7.0 (binding relative to parental) (% of parental (parental = 100)) came out at 99.

In the case of “anti-CD20 IgG Fc variant A330R (antibody)”, the FcRn 6.0 (binding relative to parental) (% of parental (parental = 100)) in assay [1] was 77. The FcRn 7.0 (binding relative to parental) (% of parental (parental = 100)) in assay [2] stood at 101.

“anti-CD20 IgG Fc variant A339T (antibody)”: in assay [1], the FcRn 6.0 (binding relative to parental) (% of parental (parental = 100)) was 115. Further, the FcRn 7.0 (binding relative to parental) (% of parental (parental = 100)) in assay [2] is 109.

For “anti-CD20 IgG Fc variant A378D (antibody)”, the FcRn 6.0 (binding relative to parental) (% of parental (parental = 100)) in assay [1] is 122. Also, in assay [2], the FcRn 7.0 (binding relative to parental) (% of parental (parental = 100)) is 93.

“anti-CD20 IgG Fc variant D280A (antibody)”: in assay [1], the FcRn 6.0 (binding relative to parental) (% of parental (parental = 100)) was determined as 91. Further, the FcRn 7.0 (binding relative to parental) (% of parental (parental = 100)) in assay [2] was 84.

As for “anti-CD20 IgG Fc variant D280K (antibody)”, the FcRn 6.0 (binding relative to parental) (% of parental (parental = 100)) in assay [1] was 103. For the same substance, the FcRn 7.0 (binding relative to parental) (% of parental (parental = 100)) in assay [2] is 93.

On to “anti-CD20 IgG Fc variant H268D (antibody)”, for which the FcRn 6.0 (binding relative to parental) (% of parental (parental = 100)) in assay [1] worked out at 87. For the same substance, the FcRn 7.0 (binding relative to parental) (% of parental (parental = 100)) in assay [2] amounted to 84.

Consider “anti-CD20 IgG Fc variant H268E (antibody)”, for which the FcRn 6.0 (binding relative to parental) (% of parental (parental = 100)) in assay [1] was 90. Also, the FcRn 7.0 (binding relative to parental) (% of parental (parental = 100)) in assay [2] came to 81.

With “anti-CD20 IgG Fc variant I332D (antibody)”, the FcRn 6.0 (binding relative to parental) (% of parental (parental = 100)) in assay [1] amounted to 91. Besides, in assay [2], the FcRn 7.0 (binding relative to parental) (% of parental (parental = 100)) was 102.

Regarding “anti-CD20 IgG Fc variant I332E (AME-133: variable region 33 with the I332E Fc variant sequence) (antibody)”, in assay [1], the FcRn 6.0 (binding relative to parental) (% of parental (parental = 100)) is 99. In addition, in assay [2], the FcRn 7.0 (binding relative to parental) (% of parental (parental = 100)) was 97. Besides, in assay [3], the Kd (usually the equilibrium constant for the complex coming apart) is 0.052 µM. For the same substance, the EC50 (read off the curve) (in general, the concentration at which the effect is half-maximal) in assay [4] was 2 µg/mL.

“anti-CD20 IgG Fc variant I332K (antibody)”: in assay [1], the FcRn 6.0 (binding relative to parental) (% of parental (parental = 100)) turned out to be 109. For the same substance, the FcRn 7.0 (binding relative to parental) (% of parental (parental = 100)) in assay [2] came to 97.

As for “anti-CD20 IgG Fc variant I332R (antibody)”, in assay [1], the FcRn 6.0 (binding relative to parental) (% of parental (parental = 100)) turned out to be 97. The FcRn 7.0 (binding relative to parental) (% of parental (parental = 100)) in assay [2] amounted to 92.

For the substance “anti-CD20 IgG Fc variant L251F (antibody)”, the FcRn 6.0 (binding relative to parental) (% of parental (parental = 100)) in assay [1] is 102. In addition, the FcRn 7.0 (binding relative to parental) (% of parental (parental = 100)) in assay [2] was 100.

Turning to “anti-CD20 IgG Fc variant P247H (antibody)”, the FcRn 6.0 (binding relative to parental) (% of parental (parental = 100)) in assay [1] amounted to 79. The FcRn 7.0 (binding relative to parental) (% of parental (parental = 100)) in assay [2] turned out to be 73.

“anti-CD20 IgG Fc variant P247I (antibody)”: the FcRn 6.0 (binding relative to parental) (% of parental (parental = 100)) in assay [1] turned out to be 89. The FcRn 7.0 (binding relative to parental) (% of parental (parental = 100)) in assay [2] stood at 74.

Regarding “anti-CD20 IgG Fc variant P247L (antibody)”, the FcRn 6.0 (binding relative to parental) (% of parental (parental = 100)) in assay [1] is 92. In addition, the FcRn 7.0 (binding relative to parental) (% of parental (parental = 100)) in assay [2] turned out to be 78.

For “anti-CD20 IgG Fc variant S440Y (antibody)”, the FcRn 6.0 (binding relative to parental) (% of parental (parental = 100)) in assay [1] is 106. Further, the FcRn 7.0 (binding relative to parental) (% of parental (parental = 100)) in assay [2] came out at 102.

With “anti-CD20 IgG Fc variant T256M (antibody)”, in assay [1], the FcRn 6.0 (binding relative to parental) (% of parental (parental = 100)) amounted to 72. Moreover, the FcRn 7.0 (binding relative to parental) (% of parental (parental = 100)) in assay [2] came out at 82.

For “anti-CD20 IgG Fc variant T256P (antibody)”, in assay [1], the FcRn 6.0 (binding relative to parental) (% of parental (parental = 100)) was determined as 132. In assay [2], the FcRn 7.0 (binding relative to parental) (% of parental (parental = 100)) was 121.

Substance “anti-CD20 IgG combinatorial Fc variant (L256P, I332E) (antibody)” had a Kd in assay [3] of 0.021 µM. The same substance returned an EC50 (read off the curve) in assay [4] of 1 µg/mL.

Take “wild type (parental Fc) anti-CD20 IgG (antibody)”: the FcRn 6.0 (binding relative to parental) (% of parental (parental = 100)) in assay [1] stood at 100. In addition, in assay [2], the FcRn 7.0 (binding relative to parental) (% of parental (parental = 100)) was determined as 100. The same substance had a Kd in assay [3] of 0.387 µM.
